# Reference: US20260152727A1
# “And” between values parts separate entries of the source, which are not always exact repeats. Equal values may be shown once.
# Biological target: RSV fusion (F) protein (prefusion F, on recombinant RSV strain A2 virions) (respiratory syncytial virus (strain A2)) (UniProt P03420)
# Test: cell-based or functional assay
# Sequence of UniProt P03420 (P03420 26-574): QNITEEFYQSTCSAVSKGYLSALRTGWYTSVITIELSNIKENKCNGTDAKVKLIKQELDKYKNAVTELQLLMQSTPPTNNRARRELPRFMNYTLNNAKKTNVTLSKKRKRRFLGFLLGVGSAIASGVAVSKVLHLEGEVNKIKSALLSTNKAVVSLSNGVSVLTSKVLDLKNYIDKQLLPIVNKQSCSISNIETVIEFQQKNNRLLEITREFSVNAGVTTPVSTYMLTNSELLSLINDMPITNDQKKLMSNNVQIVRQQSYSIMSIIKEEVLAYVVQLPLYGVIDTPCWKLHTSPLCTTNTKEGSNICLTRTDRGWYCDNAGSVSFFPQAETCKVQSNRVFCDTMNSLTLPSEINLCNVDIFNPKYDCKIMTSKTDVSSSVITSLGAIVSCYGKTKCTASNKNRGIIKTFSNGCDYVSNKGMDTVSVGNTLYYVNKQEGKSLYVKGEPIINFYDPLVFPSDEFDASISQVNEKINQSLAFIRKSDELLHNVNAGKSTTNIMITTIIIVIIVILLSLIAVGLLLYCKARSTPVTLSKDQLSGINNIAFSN
substance,measurement,value
anti-prefusion F antibody D25,"complete neutralization of 300 PFU of RSV-HRP (HRP signal OD490, HEp-2 cells)",370 ng/mL
same,"complete neutralization of 300 PFU of RSV-Lucia (secreted luciferase, luminometer) (antibody dilution (1:x, of 1 mg/ml))",2700
same,highest dilution at which the antibody negatively impacted RSV infectivity (RSV-Lucia),5 ng/mL and 1.7 ng/mL
same,highest dilution at which the antibody negatively impacted RSV-HRP infectivity,5 ng/mL
